Source: publication doi:10.1101/2024.07.08.601072

Biological target: H2A-H2B dimers (yeast) (yeast) (UniProt P04911)
Assay: native gel or EMSA

Purified Tom1p (Tom1p-Protein A after Protein A removal) (from UniProt Q03280 1-3268) (enzyme)
Kd: 160 to 330 nM
